The numbers were not newly measured in paper PMC7289715, which cites them from elsewhere.

For this data set, the target named is Spike protein (SARS-CoV-2) (UniProt P0DTC2).

Take CD147 (from UniProt P35613): the dissociation constant (Kd) is 185 nM.
